According to PMC7040017:

Target: 11-A-12 recombinant fibronectin fragment, containing the EDA domain

“F8 single-chain variable Fragment (scFv) linked to a single unit of murine GITRL (from UniProt Q7TS55 46-170)” was tested. Which fold reduction of the EC50 of NF-κB reporter activity of the CTLL-2 reporter cell line in the presence of EDA (coated 11-A-12 fibronectin) against no EDA did it give?
The fold reduction of the EC50 of NF-κB reporter activity of the CTLL-2 reporter cell line in the presence of EDA (coated 11-A-12 fibronectin) against no EDA was 5 fold.
